In patent publication US20010010923A1, “MODIFIED CARBOXYPEPTIDASE” (priority 1997, published 2001):
Residue numbers refer to the chain shown, from its start. Names and notes keep the numbering of the source.

What was measured:
Type in all cases: biochemical
[1] = Transpeptidation of Bz-G-A-R-A-R-A-OH (arginine at P1) with H-Leu-NH2, Table 1; conditions: 2mM substrate, pH 7.5, [E] 0.1 mg/mL
Description: The mutant carboxypeptidase enzvmes used in these studies were produced by site-directed mutagenesis, essentially following the procedures described in published PCT Patent Application No. WO 95/20039. In general, oligonucleotides synthesized to encode the amino acid substitution were used to produce the mutant enzymes.
(§1) Transamidation reactions were carried out generally as described in PCT Application WO 95/20039. In general, the method included dissolving the nucleophile (H-Leu-NH2, unless otherwise indicated) in 50 mM HEPES, 5 mM EDTA and adjusting the pH to 7.5, 5 μl of peptide substrate (8 mM Bz-G-A-R-A-R-A-OH, unless otherwise indicated, in methanol) was added to 190 μl nucleophile solution followed by 5 μl enzyme, […]
(§2) During the reaction, 20 μl aliquots were removed from the reaction mixture and added to 50 μl 1% trifluoroacetic acid to quench the reaction. The reactant composition was determined by HPLC using a Waters HPLC equipped with a C-18 Waters Novapac 4μ reverse phase column and various gradients of acetonitrile in 0.1% trifluoroacetic acid. The separation was monitored at 254 nm allowing the direct quantification of the products from the integrated peak areas. The composition of the reaction mixture was determined at least twvice during the reaction, the first when 20-50% (preferably 35%) of the substrate had been consumed in the reaction and the second time when 50-90% (preferably 80%) of the peptide substrate had been consumed.
The reaction products were collected and identified by amino acid analysis after acid hydrolysis using a Pharmacia Alpha Plus analyzer. Further identification was obtained by co-chromatography of authentic standard compounds.
(§3) The fraction of aminolysis (fa) was expressed as the ratio between the formed aminolysis product and the sum of all products formed. Unconsumed substrate was disregarded in the calculations.

[2] = Transpeptidation of Bz-G-A-R-A-R-X-OH at pH 7.5 at 50% substrate consumption, Table 4; parameters: key to fa: fraction: aminolysis product / sum of all products formed; conditions: for Pmax (peak product yield) / fa: 375 mM H-Leu-NH2; for fa / t: 50% substrate consumption; for t: 375 mM H-Leu-NH2, 2 mM substrate, [E] 0.1 mg/mL
Description: (§4) Transamidation reactions were carried out generally as described in PCT Application WO 95/20039. In general, the method included dissolving the nucleophile (H-Leu-NH2, unless otherwise indicated) in 50 mM HEPES, 5 mM EDTA and adjusting the pH to 7.5, 5 μl of peptide substrate (8 mM Bz-G-A-R-A-R-A-OH, unless otherwise indicated, in methanol) was added to 190 μl nucleophile solution followed by 5 μl enzyme, resulting in a substrate concentration of 0.2 mM.
as §2, §3
Site specific mutagenesis was performed as described for Example 1 to generate the specific mutants described below. Transamidation reactions were performed as described for Examples 1.

[3] = Transamidation of Bz-G-A-R-A-R-A-OH, Table 6; conditions: H-Leu-NH2 375 mM, pH 7.5, [E] 0.1 mg/mL
Description: as §1, §2, §3
Site specific mutagenesis was performed as described for Example 1 to generate the specific mutants described below. Transamidation reactions were performed as described in the previous examples.

[4] = Transpeptidation of Bz-G-A-R-A-R-X-OH at pH 6.5 at 50% substrate consumption, Table 5; parameters: key to fa: fa = aminolysis product / sum of all products formed; conditions: for Pmax (peak product yield) / fa: 750 mM H-Leu-NH2; for fa / t: 50% substrate consumption; for t: 750 mM H-Leu-NH2, 2 mM substrate, [E] 0.1 mg/mL
Description: as §4, with “[…],” for “5 mM EDTA and adjusting the pH to 7.5,”
as §2
The fraction of aminolysis (fa) was expressed as the ratio between the formed aminolysis product and the sum of all products formed. Unconsumed substrate was disregarded in the calculations. […]

[5] = Transamidation of FA-Arg-Ala-OH, Table 6; conditions: H-Leu-NH2 375 mM, pH 7.5, [E] 0.1 mg/mL
[6] = Transamidation of Bz-G-A-R-A-R-A-OH, Table 6; conditions: [S] = 2 mM; H-Leu-NH2 375 mM; pH 7.5; [E] 0.1 mg/mL

B1: L178S: carboxypeptidase Y S1 mutant, substitution L178S (protein, UniProt P00729 112-532, looked up, variant L178S)
Carboxypeptidase Y: KIKDPKILGIDPNVTQYTGYLDVEDEDKHFFFWTFESRNDPAKDPVILWLNGGPGCSSLTGLFFELGPSSIGPDLKPIGNPYSWNSNATVIFLDQPVNVGFSYSGSSGVSNTVAAGKDVYNFLELFFDQFPEYVNKGQDFHIAGESYAGHYIPVFASEILSHKDRNFNLTSVLIGNGSTDPLTQYNYYEPMACGEGGEPSVLPSEECSAMEDSLERCLGLIESCYDSQSVWSCVPATIYCNNAQLAPYQRTGRNVYDIRKDCEGGNLCYPTLQDIDDYLNQDYVKEAVGAEVDHYESCNFDINRNFLFAGDWMKPYHTAVTDLLNQDLPILVYAGDKDFICNWLGNKAWTDVLPWKYDEEFASQKVRNWTASITDEVAGEVKSYKHFTYLRVFNGGHMVPFDVPENALSMVNEWIHGGFSL
fa (fraction of aminolysis) ([1]; [N] 375 mM H-Leu-NH2): 0.72
Pmax (peak product yield) ([2]; leaving group A): 0.63
fa ([2]; leaving group A): 0.73
t ([2]; leaving group A): 14 min
Pmax (peak product yield) ([2]; leaving group I): 0
fa ([2]; leaving group I): 0
t ([2]; leaving group I): 26 min
Pmax (peak product yield) ([2]; leaving group L): 0.01
fa ([2]; leaving group L): 0.01
t ([2]; leaving group L): 2.1 min
Pmax (peak product yield) ([2]; leaving group M): 0
fa ([2]; leaving group M): 0
t ([2]; leaving group M): 28 min
Pmax (peak product yield) ([2]; leaving group S): 0.38
fa ([2]; leaving group S): 0.65
t ([2]; leaving group S): 790 min
Pmax (peak product yield) ([2]; leaving group V): 0
fa ([2]; leaving group V): 0
t ([2]; leaving group V): 40 min
Pmax ([3]; [S] = 2 mM): 0.61
Pmax (peak product yield) ([4]; leaving group A): 0.74
fa ([4]; leaving group A): 0.79
t ([4]; leaving group A): 34 min
Pmax (peak product yield) ([4]; leaving group L): 0.03
fa ([4]; leaving group L): 0.03
t ([4]; leaving group L): 17 min
Pmax (peak product yield) ([4]; leaving group S): 0.63
fa ([4]; leaving group S): 0.34
t ([4]; leaving group S): 108 min
Pmax ([5]; [S] = 2 mM): 0.76
fa ([5]; [S] = 2 mM): 0.89
fa [6]: 0.77

B2: N241D + W312A: carboxypeptidase Y mutant N241D + W312A (protein, UniProt P00729 112-532, looked up, variant N241D W312A)
Carboxypeptidase Y: B1 Carboxypeptidase Y with S178L, N241D, W312A
Pmax ([3]; [S] = 2 mM): 0.20
Pmax ([5]; [S] = 2 mM): 0.72
fa ([5]; [S] = 2 mM): 0.80
fa [6]: 0.28

B3: L245E: carboxypeptidase Y S1 mutant, substitution L245E (protein, UniProt P00729 112-532, looked up, variant L245E)
Carboxypeptidase Y: B1 Carboxypeptidase Y with S178L, L245E
fa (fraction of aminolysis) ([1]; [N] 50 mM H-Leu-NH2): 0.07
fa (fraction of aminolysis) ([1]; [N] 375 mM H-Leu-NH2): 0.18
Pmax ([3]; [S] = 2 mM): 0.09
Pmax ([5]; [S] = 2 mM): 0.73
fa ([5]; [S] = 2 mM): 0.83
fa [6]: 0.20

B4: N241D + W312N: carboxypeptidase Y mutant N241D + W312N (protein, UniProt P00729 112-532, looked up, variant N241D W312N)
Carboxypeptidase Y: B1 Carboxypeptidase Y with S178L, N241D, W312N
Pmax ([3]; [S] = 2 mM): 0.13
Pmax ([5]; [S] = 2 mM): 0.58
fa ([5]; [S] = 2 mM): 0.74
fa [6]: 0.17

B5: N241E: carboxypeptidase Y S1 mutant, substitution N241E (protein, UniProt P00729 112-532, looked up, variant N241E)
Carboxypeptidase Y: B1 Carboxypeptidase Y with S178L, N241E
fa (fraction of aminolysis) ([1]; [N] 50 mM H-Leu-NH2): 0.27
Pmax ([3]; [S] = 0.2 mM): 0.25
fa ([3]; [S] = 0.2 mM): 0.43
Pmax ([3]; [S] = 2 mM): 0.25
Pmax ([5]; [S] = 0.2 mM): 0.49
fa ([5]; [S] = 0.2 mM): 0.70
fa ([5]; [S] = 2 mM): 0.92
fa [6]: 0.47

B6: W312D: carboxypeptidase Y S1 mutant, substitution W312D (protein, UniProt P00729 112-532, looked up, variant W312D)
Carboxypeptidase Y: B1 Carboxypeptidase Y with S178L, W312D
fa (fraction of aminolysis) ([1]; [N] 375 mM H-Leu-NH2): 0.15
Pmax ([3]; [S] = 2 mM): 0.08
Pmax ([5]; [S] = 2 mM): 0.67
fa ([5]; [S] = 2 mM): 0.77
fa [6]: 0.16

B7: N241D: carboxypeptidase Y mutant, substitution N241D (protein, UniProt P00729 112-532, looked up, variant N241D)
Carboxypeptidase Y: B1 Carboxypeptidase Y with S178L, N241D
Pmax ([3]; [S] = 2 mM): 0.09
Pmax ([5]; [S] = 2 mM): 0.56
fa ([5]; [S] = 2 mM): 0.85
fa [6]: 0.15

B8: L178S + M398L: carboxypeptidase Y mutant L178S + M398L (S1 and S1' subsites) (protein, UniProt P00729 112-532, looked up, variant L178S M398L)
Carboxypeptidase Y: B1 Carboxypeptidase Y with M398L
Pmax (peak product yield) ([2]; leaving group A): >0.48
fa ([2]; leaving group A): 0.77
t ([2]; leaving group A): 41 min
fa ([2]; leaving group I): 0.54
t ([2]; leaving group I): 33 min
Pmax (peak product yield) ([2]; leaving group L): >0.39
fa ([2]; leaving group L): 0.39
t ([2]; leaving group L): 1 min
fa ([2]; leaving group M): 0.17
t ([2]; leaving group M): 17 min
fa ([2]; leaving group V): 0.45
t ([2]; leaving group V): 30 min
Pmax (peak product yield) ([4]; leaving group A): 0.48
fa ([4]; leaving group A): 0.92
t ([4]; leaving group A): 53 min
Pmax (peak product yield) ([4]; leaving group L): 0.54
fa ([4]; leaving group L): 0.54
t ([4]; leaving group L): 19 min
Pmax ([5]; [S] = 2 mM): 0.90
fa ([5]; [S] = 2 mM): .99
fa [6]: 0.91

B9: N241D + W312L: carboxypeptidase Y mutant N241D + W312L (protein, UniProt P00729 112-532, looked up, variant N241D W312L)
Carboxypeptidase Y: B1 Carboxypeptidase Y with S178L, N241D, W312L
Pmax ([3]; [S] = 2 mM): 0.05
Pmax ([5]; [S] = 2 mM): 0.37
fa ([5]; [S] = 2 mM): 0.50
fa [6]: 0.05

B10: N241D + W312F: carboxypeptidase Y mutant N241D + W312F (protein, UniProt P00729 112-532, looked up, variant N241D W312F)
Carboxypeptidase Y: B1 Carboxypeptidase Y with S178L, N241D, W312F
Pmax ([3]; [S] = 2 mM): 0.17
Pmax ([5]; [S] = 2 mM): 0.58
fa ([5]; [S] = 2 mM): 0.70
fa [6]: 0.24
